Measurements published in US6794144.

Columns and labels:
[1] = molecular target: GST-Nef (HIV-1 NL4-3 Nef containing a T71R change) (HIV-1 NL4-3) [GST: P08515]
[2] = molecular target: GST-NefR90 (HIV-1 Nef carrying an F90R mutation) (HIV-1) [GST: P08515]
[3] = molecular target: GST-Nef (HIV-1 NL4-3 Nef containing a T71R change) (HIV-1 NL4-3) [GST: P08515]; assay: competition plate assay: unlabeled GST-SH3 vs biotinylated Hck-SH3 probe (66 nM) on immobilized GST-Nef
[4] = molecular target: GST-Nef (HIV-1 NL4-3 Nef containing a T71R change) (HIV-1 NL4-3) [GST: P08515]; remark: listed apart in the source
[5] = molecular target: GST-NefR90 (HIV-1 Nef carrying an F90R mutation) (HIV-1) [GST: P08515]; remark: listed apart in the source
[6] = molecular target: GST-Nef (HIV-1 NL4-3 Nef containing a T71R change) (HIV-1 NL4-3) [GST: P08515]; assay: calculated from competition with Hck-SH3 probe on immobilized Nef, based on KD 250 nM of Hck-SH3/Nef
[7] = molecular target: GST-NefR90 (HIV-1 Nef carrying an F90R mutation) (HIV-1) [GST: P08515]; assay: estimated from competition by Hck-SH3 and the earlier KD 1.99 µM of Hck-SH3/NefR90

Substance | inhibition at an equimolar probe:competitor ratio [1] | inhibition at an equimolar probe:competitor ratio [2] | ratio of competitor per probe giving 50% inhibition (1:x competitor:probe) [3] | IC50 [4] | fold excess over the probe needed for 50% inhibition [4] | IC50 [5] | fold molar excess over the probe needed for 50% inhibition [5] | Kd [6] | Kd [7]
GST-RRT.m2 (Hck-derived RRT-SH3 domain selected on NefR90, RT-loop NAFLPS) (from UniProt P08631 62-118) (designed binder) | < 5% | 73% | 2 |  |  |  |  |  | 
GST-Hck-SH3 (native Hck SH3 domain, GST fusion protein) (from UniProt P08631 78-138) | < 5% | < 5% | 1 | > 850 nM | > 100 fold | > 1100 nM | > 16 fold |  | 
GST-RRT.B6 (Hck-derived RRT-SH3 domain, RT-loop YSPFSW) (from UniProt P08631 62-118) (designed binder) | 51% | 14% | 37 |  |  |  |  | 7 nM | 
GST-RRT.C3 (Hck-derived RRT-SH3 domain, RT-loop YSDFPW) (from UniProt P08631 62-118) (designed binder) | 42% | 20% | 26 |  |  |  |  |  | 
GST-RRT.B1 (Hck-derived RRT-SH3 domain, RT-loop WSPFPS) (from UniProt P08631 62-118) (designed binder) | 41% | 9% | 26 |  |  |  |  |  | 
GST-RRT.B4 (Hck-derived RRT-SH3 domain, RT-loop FSPFDW) (from UniProt P08631 62-118) (designed binder) | 41% | 37% | 21 |  |  |  |  |  | 
GST-RRT.A2 (Hck-derived RRT-SH3 domain, RT-loop FSWSDT) (from UniProt P08631 62-118) (designed binder) | 20% | 53% | 19 |  |  |  |  |  | 
GST-RRT.A1 (Hck-derived RRT-SH3 domain, RT-loop VSWSPD) (from UniProt P08631 62-118) (designed binder) | 55% | 52% | 35 |  |  |  |  | 7 nM | < 100 nM
GST-RRT.C1 (Hck-derived RRT-SH3 domain, RT-loop TSPFPW) (from UniProt P08631 62-118) (designed binder) | 39% | < 5% | 31 |  |  |  |  | 7 nM | 
GST-RRT.C4 (Hck-derived RRT-SH3 domain, RT-loop DSWFPW) (from UniProt P08631 62-118) (designed binder) | 10% | 19% | 14 |  |  |  |  |  | 
GST-RRT.D1 (Hck-derived RRT-SH3 domain, RT-loop SSFYSS) (from UniProt P08631 62-118) (designed binder) | 45% | 17% | 22 |  |  |  |  |  | 
GST-RRT.m3 (Hck-derived RRT-SH3 domain selected on NefR90, RT-loop EAWSPL) (from UniProt P08631 62-118) (designed binder) | 22% | 62% | 17 |  |  |  |  |  | 
GST-RRT.A4 (Hck-derived RRT-SH3 domain, RT-loop YSWSDM) (from UniProt P08631 62-118) (designed binder) | 34% | 44% | 10 |  |  |  |  |  | 
GST-RRT.m4 (Hck-derived RRT-SH3 domain selected on NefR90, RT-loop ESYSEW) (from UniProt P08631 62-118) (designed binder) | < 5% | 46% |  |  |  |  |  |  | 
GST-RRT.B2 (Hck-derived RRT-SH3 domain, RT-loop DSPFSF) (from UniProt P08631 62-118) (designed binder) | 22% | 26% | 22 |  |  |  |  |  | 
GST-RRT.C2 (Hck-derived RRT-SH3 domain, RT-loop YSFFPW) (from UniProt P08631 62-118) (designed binder) | 20% | 13% | 16 |  |  |  |  |  | 
GST-RRT.m1 (Hck-derived RRT-SH3 domain selected on NefR90, RT-loop QGFLDQ) (from UniProt P08631 62-118) (designed binder) | < 5% | 73% | 0.8 |  |  |  |  |  | 
